Experimental data from article PMC7321842 (Nature, 2020).
Numbering of substitutions follows the chain as printed. Blank lines part the entries; values can stand above or below the binder they belong to.

Key:
CHMP7_(R270E+I312E) = target: T1, CHMP7_(R270E+I312E) (human, UniProt Q8WUX9 1-453, R270E | I312E); experiment: co-sedimentation
T1 sequence (looked up): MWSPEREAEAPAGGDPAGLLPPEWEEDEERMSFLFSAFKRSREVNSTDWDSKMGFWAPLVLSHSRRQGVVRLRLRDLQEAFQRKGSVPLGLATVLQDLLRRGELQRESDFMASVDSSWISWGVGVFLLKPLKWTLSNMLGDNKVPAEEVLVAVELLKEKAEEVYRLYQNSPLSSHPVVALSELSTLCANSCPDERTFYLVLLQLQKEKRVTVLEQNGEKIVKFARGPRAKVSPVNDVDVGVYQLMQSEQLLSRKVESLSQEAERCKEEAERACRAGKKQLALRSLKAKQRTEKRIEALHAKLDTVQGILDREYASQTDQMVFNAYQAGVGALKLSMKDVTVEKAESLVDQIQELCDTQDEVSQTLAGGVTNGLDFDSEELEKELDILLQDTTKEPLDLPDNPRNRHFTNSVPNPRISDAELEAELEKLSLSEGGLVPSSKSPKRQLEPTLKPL

CHMP7_(I312E+V339D) = target: T2, CHMP7_(I312E+V339D) (human, UniProt Q8WUX9 1-453, I312E | V339D); experiment: co-sedimentation
T2 sequence (looked up): T1 sequence (looked up) with E270R, V339D

full-length, human CHMP7 = target: T3, full-length, human CHMP7 (human, UniProt Q8WUX9 1-453); experiment: co-sedimentation
T3 sequence (looked up): T1 sequence (looked up) with E270R, E312I

CHMP7_(R270E+V339D) = target: T4, CHMP7_(R270E+V339D) (human, UniProt Q8WUX9 1-453, R270E | V339D); experiment: co-sedimentation
T4 sequence (looked up): T1 sequence (looked up) with E312I, V339D

[1] = target: the molecule itself; experiment: negative stain electron microscopy of polymers

binding result (CHMP7_(R270E+I312E)): binds
binding result (CHMP7_(I312E+V339D)): binds
stoichiometry N (full-length, human CHMP7): 1
binding result (CHMP7_(R270E+V339D)): binds
B1: WH domain of LEM2 (LEM2WH; AA:395–503) (domain or fragment, human, UniProt Q8NC56 395-503, looked up)
chain: ILLKYRWRKLEEEEQAMYEMVKKIIDVVQDHYVDWEQDMERYPYVGILHVRDSLIPPQSRRRMKRVWDRAVEFLASNESRIQTESHRVAGEDMLVWRWTKPSSFSDSER

B2: CHMP7_(ESCRT-III) (AA:229–453) (domain or fragment, human, UniProt Q8WUX9 229-453, looked up)
chain: AKVSPVNDVDVGVYQLMQSEQLLSRKVESLSQEAERCKEEARRACRAGKKQLALRSLKAKQRTEKRIEALHAKLDTVQGILDRIYASQTDQMVFNAYQAGVGALKLSMKDVTVEKAESLVDQIQELCDTQDEVSQTLAGGVTNGLDFDSEELEKELDILLQDTTKEPLDLPDNPRNRHFTNSVPNPRISDAELEAELEKLSLSEGGLVPSSKSPKRQLEPTLKPL
binding result [1]: binds
